The numbers were not newly measured in PMC9542338, which cites them from elsewhere.

For series [1], the target named is CD155 (Homo sapiens) (UniProt P15151).
The target is the same in series [2]. The source holds these as a separate data set.

Read-outs that look alike come from different tables or passages of the source.

Chain of UniProt P15151 (P15151 21-343): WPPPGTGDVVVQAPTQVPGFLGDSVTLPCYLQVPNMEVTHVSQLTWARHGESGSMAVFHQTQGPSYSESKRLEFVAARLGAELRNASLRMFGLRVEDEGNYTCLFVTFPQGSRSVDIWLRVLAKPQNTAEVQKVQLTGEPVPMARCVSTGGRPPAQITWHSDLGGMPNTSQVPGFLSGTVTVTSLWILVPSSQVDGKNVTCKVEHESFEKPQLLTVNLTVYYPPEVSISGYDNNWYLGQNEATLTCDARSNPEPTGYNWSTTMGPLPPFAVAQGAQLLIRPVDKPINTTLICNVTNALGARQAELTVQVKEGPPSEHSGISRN

Take CD226 (from UniProt Q15762): the Kd (in general, the constant that tells how readily two partners part at equilibrium) in the series with CD155 (Homo sapiens) [1] was 115 nM.
As to TIGIT (from UniProt Q495A1), the Kd in the series with CD155 (Homo sapiens) [2] is 2 nM.
